{"source": "patent US20110111406A1", "about": "(published 2011)", "binders": {"B1": {"name": "Fv2-IgG1 (antibody, V domains shown)", "VH": "QVQLQESGPGLVKPSETLSLTCAVSGYSISHDHAWSWVRQPPGEGLEWIGHISYSGITNYNPHLQDRVTISRDTSKNQFSLKLSSVTAADTAAYYCARFLARITAHDHWGEGTLVTVSS", "VL": "DIQMTQSPSSLSASVGDSVTITCQASQDISSHLNWYQQKPGKAPELLIYYGSHLHSGVPSRFSGSGSGTDFTFTISSLEAEDAATYYCGQGNRLPYTFGQGTKVEIE", "notes": "also called VH1-IgG1/L82"}, "B2": {"name": "H54/L28-IgG1 (antibody, V domains shown)", "VH": "QVQLQESGPGLVKPSETLSLTCAVSGYSISDDQAWSWVRQPPGEGLEWIGYISYSGITNYNPSLKGRVTISRDTSKNQFSLKLSSVTAADTAAYYCARSLARTTAMDYWGEGTLVTVSS", "VL": "DIQMTQSPSSLSASVGDSVTITCQASQDISSYLNWYQQKPGKAPELLIYYGSELHSGVPSRFSGSGSGTDFTFTISSLEAEDAATYYCQQGNSLPYTFGQGTKVEIE", "notes": "tested as IgG1"}, "B3": {"name": "Fv4-M58 (antibody)", "heavy": "QVQLQESGPGLVKPSETLSLTCAVSGHSISHDHAWSWVRQPPGEGLEWIGFISYSGITNYNPSLQGRVTISRDNSKNTLYLQMNSLRAEDTAVYYCARSLARTTAMDYWGEGTLVTVSSASTKGPSVFPLAPSSKSTSGGTAALGCLVKDYFPEPVTVSWNSGALTSGVHTFPAVLQSSGLYSLSSVVTVPSSNFGTQTYTCNVDHKPSNTKVDKTVERKSCVECPPCPAPPVAGPSVFLFPPKPKDTLMISRTPEVTCVVVDVSQEDPEVQFNWYVDGVEVHNAKTKPREEQFNSTFRVVSVLTVVHQDWLNGKEYKCKVSNKGLPAPIEKTISKTKGQPREPQVYTLPPSQEEMTKNQVSLTCLVKGFYPSDIAVEWESNGQPENNYKTTPPMLDSDGSFFLYSKLTVDKSRWQEGNVFSCSVMHEALHNHYTQKSLSLSP", "light": "DIQMTQSPSSLSASVGDSVTITCQASTDISSHLNWYQQKPGKAPELLIYYGSHLLSGVPSRFSGSGSGTDFTFTISSLEAEDAATYYCGQGNRLPYTFGQGTKVEIERTVAAPSVFIFPPSDEQLKSGTASVVCLLNNFYPREAKVQWKVDNALQSGNSQESVTEQDSKDSTYSLSSTLTLSKADYEKHKVYACEVTHQGLSSPVTKSFNRGEC", "notes": "also called VH3-M58/VL3-CK"}, "B4": {"name": "Fv3-M71 (antibody, human IgG2, kappa)", "heavy": "QVQLQESGPGLVKPSETLSLTCAVSGHSISHDHAWSWVRQPPGEGLEWIGFISYSGITNYNPTLQGRVTISRDNSKNTLYLQMNSLRAEDTAVYYCARSLARTTAMDYWGEGTLVTVSSASTKGPSVFPLAPCSRSTSESTAALGCLVKDYFPEPVTVSWNSGALTSGVHTFPAVLQSSGLYSLSSVVTVPSSNFGTQTYTCNVDHKPSNTKVDKTVERKCCVECPPCPAPPVAGPSVFLFPPKPKDTLMISRTPEVTCVVVDVSHEDPEVQFNWYVDGVEVHNAKTKPREEQFNSTFRVVSVLTVVHQDWLNGKEYKCKVSNKGLPAPIEKTISKTKGQPREPQVYTLPPSREEMTKNQVSLTCLVKGFYPSDIAVEWESNGQPENNYKTTPPMLDSDGSFFLYSKLTVDKSRWQQGNVFSCSVMHEALHAHYTQKSLSLSPGK", "light": "DIQMTQSPSSLSASVGDSVTITCQASRDISSHLNWYQQKPGKAPELLIYYGSHLLSGVPSRFSGSGSGTDFTFTISSLEAEDAATYYCGQGNRLPYTFGQGTKVEIERTVAAPSVFIFPPSDEQLKSGTASVVCLLNNFYPREAKVQWKVDNALQSGNSQESVTEQDSKDSTYSLSSTLTLSKADYEKHKVYACEVTHQGLSSPVTKSFNRGEC", "notes": "also called VH4-M71/VL1-CK"}, "B5": {"name": "Fv4-IgG1 (antibody)", "heavy": "not shown", "light": "DIQMTQSPSSLSASVGDSVTITCQASTDISSHLNWYQQKPGKAPELLIYYGSHLLSGVPSRFSGSGSGTDFTFTISSLEAEDAATYYCGQGNRLPYTFGQGTKVEIERTVAAPSVFIFPPSDEQLKSGTASVVCLLNNFYPREAKVQWKVDNALQSGNSQESVTEQDSKDSTYSLSSTLTLSKADYEKHKVYACEVTHQGLSSPVTKSFNRGEC", "notes": "also called VH3-IgG1/VL3-CK"}, "B6": {"name": "Fv4-IgG2 (antibody)", "heavy": "QVQLQESGPGLVKPSETLSLTCAVSGHSISHDHAWSWVRQPPGEGLEWIGFISYSGITNYNPSLQGRVTISRDNSKNTLYLQMNSLRAEDTAVYYCARSLARTTAMDYWGEGTLVTVSSASTKGPSVFPLAPCSRSTSESTAALGCLVKDYFPEPVTVSWNSGALTSGVHTFPAVLQSSGLYSLSSVVTVPSSNFGTQTYTCNVDHKPSNTKVDKTVERKCCVECPPCPAPPVAGPSVFLFPPKPKDTLMISRTPEVTCVVVDVSHEDPEVQFNWYVDGVEVHNAKTKPREEQFNSTFRVVSVLTVVHQDWLNGKEYKCKVSNKGLPAPIEKTISKTKGQPREPQVYTLPPSREEMTKNQVSLTCLVKGFYPSDIAVEWESNGQPENNYKTTPPMLDSDGSFFLYSKLTVDKSRWQQGNVFSCSVMHEALHNHYTQKSLSLSP", "light": "DIQMTQSPSSLSASVGDSVTITCQASTDISSHLNWYQQKPGKAPELLIYYGSHLLSGVPSRFSGSGSGTDFTFTISSLEAEDAATYYCGQGNRLPYTFGQGTKVEIERTVAAPSVFIFPPSDEQLKSGTASVVCLLNNFYPREAKVQWKVDNALQSGNSQESVTEQDSKDSTYSLSSTLTLSKADYEKHKVYACEVTHQGLSSPVTKSFNRGEC", "notes": "also called Fv4-IgG2ΔGK; VH3-IgG2ΔGK/VL3-CK"}, "B7": {"name": "Fv4-M73 (antibody)", "heavy": "QVQLQESGPGLVKPSETLSLTCAVSGHSISHDHAWSWVRQPPGEGLEWIGFISYSGITNYNPSLQGRVTISRDNSKNTLYLQMNSLRAEDTAVYYCARSLARTTAMDYWGEGTLVTVSSASTKGPSVFPLAPSSKSTSGGTAALGCLVKDYFPEPVTVSWNSGALTSGVHTFPAVLQSSGLYSLSSVVTVPSSNFGTQTYTCNVDHKPSNTKVDKTVERKSCVECPPCPAPPVAGPSVFLFPPKPKDTLMISRTPEVTCVVVDVSQEDPEVQFNWYVDGVEVHNAKTKPREEQFNSTFRVVSVLTVVHQDWLNGKEYKCKVSNKGLPAPIEKTISKTKGQPREPQVYTLPPSQEEMTKNQVSLTCLVKGFYPSDIAVEWESNGQPENNYKTTPPMLDSDGSFFLYSKLTVDKSRWQEGNVFSCSVMHEALHAHYTQKSLSLSP", "light": "DIQMTQSPSSLSASVGDSVTITCQASTDISSHLNWYQQKPGKAPELLIYYGSHLLSGVPSRFSGSGSGTDFTFTISSLEAEDAATYYCGQGNRLPYTFGQGTKVEIERTVAAPSVFIFPPSDEQLKSGTASVVCLLNNFYPREAKVQWKVDNALQSGNSQESVTEQDSKDSTYSLSSTLTLSKADYEKHKVYACEVTHQGLSSPVTKSFNRGEC", "notes": "also called VH3-M73/VL3-CK"}}, "key": {"[1]": {"molecular_target": "T1, recombinant soluble human IL-6 receptor (SR344) (human, UniProt P08887 20-344)", "T1 construct": "In the 'membrane-type IL-6 receptor' Biacore assays the same SR344 was biotinylated and immobilized via streptavidin; also called soluble IL-6 receptor; membrane-type IL-6 receptor (as biotinylated SR344 immobilized on the sensor chip)", "T1 sequence (looked up)": "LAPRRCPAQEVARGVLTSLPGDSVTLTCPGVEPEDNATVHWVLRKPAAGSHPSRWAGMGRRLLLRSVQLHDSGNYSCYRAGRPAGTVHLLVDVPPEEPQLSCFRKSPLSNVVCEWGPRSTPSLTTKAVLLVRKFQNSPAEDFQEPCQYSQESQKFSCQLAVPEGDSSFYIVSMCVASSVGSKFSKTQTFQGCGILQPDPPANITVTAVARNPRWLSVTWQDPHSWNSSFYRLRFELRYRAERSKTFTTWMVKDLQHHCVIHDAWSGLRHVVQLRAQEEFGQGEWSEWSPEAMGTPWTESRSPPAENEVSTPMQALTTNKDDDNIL", "assay": "Biacore T100, biotinylated SR344 immobilized via streptavidin (membrane-type IL-6 receptor model), antibody as analyte; ratio of kd at pH 5.8 to pH 7.4", "protocol": "(§1) Binding to the membrane-type IL-6 receptor was evaluated by evaluating binding to the IL-6 receptor immobilized on a sensor chip. SR344 was biotinylated in accordance with a method known among persons with ordinary skill in the art, and the biotinylated SR344 was immobilized on the sensor chip via streptavidin using the affinity between streptavidin and biotin. All the measurements were carried out at 37° C. The mobile phase buffer was 10 mM MES (pH 5.8), 150 mM NaCl and 0.05% Tween 20.\n(§2) The pH-dependently-binding clones were injected under the condition of pH 7.4 to allow them to bind to SR344, and then, the pH-dependent dissociation of each clone at the pH of the mobile phase, pH 5.8, was observed. The results are shown in FIG. 21 (results for Fv1-M71, Fv1-M73, Fv3-M71, and Fv3-M73 are shown in FIG. 21, while results for other clones are shown in FIGS. 17 and 19). Analyses were carried out in the same manner as in Example 10 and the pH dependencies of the dissociation rate constants of all of the eleven types of clones are shown in Table 12."}, "[2]": {"molecular_target": "T1, recombinant soluble human IL-6 receptor …", "assay": "Biacore T100, biotinylated SR344 immobilized via streptavidin (membrane-type IL-6 receptor model), antibody as analyte; ratio of kd at pH 5.8 to pH 7.4", "protocol": "as §1, §2", "remark": "listed apart in the source"}, "[3]": {"molecular_target": "T1, recombinant soluble human IL-6 receptor …", "assay": "Biacore T100, antibody captured on protein A/G, SR344 as analyte, 37C; ratio of KD at pH 5.8 to pH 7.4", "protocol": "(§3) Kinetic analysis of antigen-antibody reactions at pH 7.4 and pH 5.8 was carried out using Biacore T100 (GE Healthcare) for the four types of antibodies prepared: WT-IgG1, H54/L28-IgG1, H170/L82-IgG1, and Fv4-IgG1(buffer: 10 mM MES (pH 7.4 or pH 5.8), 150 mM NaCl, 0.05% Surfactant-P20). The antibodies were bound to a sensor chip on which recomb-protein A/G (Pierce) was immobilized by amine coupling, and SR344 adjusted to an appropriate concentration was injected therein as an analyte. The association with and dissociation from SR344 of each type of antibody were observed on a real-time basis. All the measurements were carried out at 37° C. Association rate constants kₐ (1/Ms) and dissociation rate constants kd (1/s) were calculated using Biacore T100 Evaluation Software (GE Healthcare), and dissociation constants KD (M) were calculated based on those values (Table 17)."}, "[4]": {"molecular_target": "T1, recombinant soluble human IL-6 receptor …", "assay": "Biacore T100, antibody captured on protein A/G, SR344 as analyte, 37C; ratio of kd at pH 5.8 to pH 7.4", "protocol": "as §3"}, "[5]": {"molecular_target": "T1, recombinant soluble human IL-6 receptor …", "assay": "Biacore T100, biotinylated SR344 immobilized via streptavidin (membrane-type IL-6 receptor model), antibody as analyte; ratio of kd at pH 5.8 to pH 7.4", "protocol": "as §1, §2", "remark": "listed apart in the source"}}}
{"binder": "B1", "values": [{"measurement": "kd(pH 5.8)/kd(pH 7.4)", "setting": "[1]", "result": 7.18}, {"measurement": "kd(pH 5.8)/kd(pH 7.4)", "setting": "[2]", "result": 7.18}]}
{"binder": "B2", "values": [{"measurement": "KD(pH5.8)/KD(pH7.4)", "setting": "[3]", "result": 0.7}, {"measurement": "kd(pH 5.8)/kd(pH 7.4)", "setting": "[4]", "result": 2}]}
{"binder": "B3", "values": [{"measurement": "kd(pH 5.8)/kd(pH 7.4)", "setting": "[5]", "result": 17.6}, {"measurement": "kd(pH 5.8)/kd(pH 7.4)", "setting": "[1]", "result": 17.6}]}
{"binder": "B4", "values": [{"measurement": "kd(pH 5.8)/kd(pH 7.4)", "setting": "[1]", "result": 10.7}]}
{"binder": "B5", "values": [{"measurement": "KD(pH5.8)/KD(pH7.4)", "setting": "[3]", "result": 27.3}, {"measurement": "kd(pH 5.8)/kd(pH 7.4)", "setting": "[5]", "result": 5.56}, {"measurement": "kd(pH 5.8)/kd(pH 7.4)", "setting": "[4]", "result": 38.8}, {"measurement": "kd(pH 5.8)/kd(pH 7.4)", "setting": "[1]", "result": 5.56}, {"measurement": "kd(pH 5.8)/kd(pH 7.4)", "setting": "[2]", "result": 5.56}]}
{"binder": "B6", "values": [{"measurement": "kd(pH 5.8)/kd(pH 7.4)", "setting": "[5]", "result": 17}, {"measurement": "kd(pH 5.8)/kd(pH 7.4)", "setting": "[1]", "result": 17}]}
{"binder": "B7", "values": [{"measurement": "kd(pH 5.8)/kd(pH 7.4)", "setting": "[5]", "result": 10.1}, {"measurement": "kd(pH 5.8)/kd(pH 7.4)", "setting": "[1]", "result": 10.1}]}
